Laboratory results reported in article PMC5700162, “Structural insights into the committed step of bacterial phospholipid biosynthesis” (Nature Communications, 2017).
Positions count from the first letter of the chain named. Names and notes keep the numbering of the source.

B1: aaPlsY (Aquifex aeolicus VF5) (protein)
chain: MKALFLVIFAYLLGSITFGEVIAKLKGVDLRNVGSGNVGATNVTRALGKKYGVLVFFLDFLKGFIPALIAVKSFGIDSWVLTFTGLASVLGHMYPVFFGFKGGKGVATALGVVFAVSPSVALFSFLVWLGIFLWKRYVSLASITATISAFLFLFVAGYPVNVLFMAIVIGALIIYRHRENINRLLTGREHRF
notes: full length, 192 residues, monomer, codon-optimised gene, E. coli BL21(DE3); assays: C-terminal His8 tag (p3EC); crystals: C-terminal His-eGFP removed by 3C protease; DDM-purified, reconstituted in lipid cubic phase
B2: aaPlsY (Aquifex aeolicus VF5; N180A) (protein)
chain: B1 chain with N180A
notes: as for B1
B3: aaPlsY (Aquifex aeolicus VF5; E189A) (protein)
chain: B1 chain with E189A
notes: as for B1
B4: aaPlsY (Aquifex aeolicus VF5; S35A) (protein)
chain: B1 chain with S35A
notes: as for B1
B5: aaPlsY (Aquifex aeolicus VF5; K104A) (protein)
chain: B1 chain with K104A
notes: as for B1
B6: aaPlsY (Aquifex aeolicus VF5; H92A) (protein)
chain: B1 chain with H92A
notes: as for B1
B7: aaPlsY (Aquifex aeolicus VF5; T41A) (protein)
chain: B1 chain with T41A
notes: as for B1
B8: aaPlsY (Aquifex aeolicus VF5; N37A) (protein)
chain: B1 chain with N37A
notes: as for B1
B9: aaPlsY (Aquifex aeolicus VF5; H177A) (protein)
chain: B1 chain with H177A
notes: as for B1
B10: aaPlsY (Aquifex aeolicus VF5; S142A) (protein)
chain: B1 chain with S142A
notes: as for B1
B11: aaPlsY (Aquifex aeolicus VF5; R45A) (protein)
chain: B1 chain with R45A
notes: as for B1

Substrate: O=P(O)(O)OC[C@H](O)CO
Experiment: coupled MDCC-PBP Pi-biosensor fluorescence assay in lipid cubic phase (monoolein)
Type: biochemical, Aquifex aeolicus
Conditions: co-substrate 1.8 mol% 16:0-P, pH 8.0, 30 °C, 0-50 mM G3P

Molecule B1 has a Km of 1.39 mM.

With B1 the kcat was 13.4 s⁻¹.

Target: T1, aaPlsY (Aquifex aeolicus, UniProt O66905)
Experiment: not given
Set-up: gene plsY
Conditions: 7.8 MAG LCP with 0.4 M Na2HPO4, pH 7.0; three phosphates from phosphate hole to phosphate clamp

With `O=P(O)(O)O` [Pi, inorganic phosphate] the “X-ray crystal structure, 1.83 Å” value was “three phosphates are trapped in a positive patch stretching from the phosphate hole”.

Substrate: O=P(O)(O)OC[C@H](O)CO
Experiment: coupled MDCC-PBP Pi-biosensor fluorescence assay in lipid cubic phase (monoolein)
Type: biochemical, Aquifex aeolicus
Conditions: co-substrate 3.3-5.2 mol% 16:0-P, pH 8.0, 30 °C, no technical replicates
Text: coupled MDCC-PBP Pi-biosensor fluorescence assay in lipid cubic phase (monoolein) on […]

Point of comparison: B7, Km 0.43 mM. Against it:
- B2 — 61-fold higher, 26.31 mM
- B3 — 13-fold higher, 5.79 mM
- B4 — 32-fold higher, 13.75 mM
- B5 — 15-fold higher, 6.58 mM
- B6 — 6.1-fold higher, 2.64 mM
- B8 — 7.1-fold higher, 3.04 mM
- B9 — 21-fold higher, 9.24 mM
- B10 — 6.7-fold higher, 2.89 mM
- B11 — 120-fold higher, 50.46 mM

Point of comparison: B5, kcat 1 s⁻¹. Against it:
- B2 — 1.6-fold lower, 0.62 s⁻¹
- B3 — 18-fold higher, 18.5 s⁻¹
- B4 — 1.6-fold lower, 0.64 s⁻¹
- B6 — 2.4-fold higher, 2.37 s⁻¹
- B7 — 1.6-fold lower, 0.64 s⁻¹
- B8 — 2.5-fold higher, 2.49 s⁻¹
- B9 — within 1.5-fold, 0.88 s⁻¹
- B10 — 4.3-fold higher, 4.29 s⁻¹
- B11 — 6.7-fold lower, 0.15 s⁻¹

Target: T1, aaPlsY
Experiment: as above
Type: biochemical
Set-up: gene plsY; full length, 192 residues, monomer, codon-optimised gene, E. coli BL21(DE3); assays: C-terminal His8 tag (p3EC); crystals: C-terminal His-eGFP removed by 3C protease; DDM-purified, reconstituted in lipid cubic phase
Conditions: co-substrate 30 mM glycerol phosphate; pH 8.0, 30 °C; 0-2 mol% 16:0-P in the lipid phase

`CCCCCCCCCCCCCCCC(=O)OP(=O)(O)O` [16:0-P, palmitoyl phosphate] was tested, and the “apparent Km” value was 0.1 mol% (relative to monoolein).
